Reference: US20150246947A1 (BAXALTA, published 2015)

Experiments:
human Protein S [1] = target: T1, human Protein S (human, UniProt P07225 42-676); assay: cell-based or functional assay
T1 sequence: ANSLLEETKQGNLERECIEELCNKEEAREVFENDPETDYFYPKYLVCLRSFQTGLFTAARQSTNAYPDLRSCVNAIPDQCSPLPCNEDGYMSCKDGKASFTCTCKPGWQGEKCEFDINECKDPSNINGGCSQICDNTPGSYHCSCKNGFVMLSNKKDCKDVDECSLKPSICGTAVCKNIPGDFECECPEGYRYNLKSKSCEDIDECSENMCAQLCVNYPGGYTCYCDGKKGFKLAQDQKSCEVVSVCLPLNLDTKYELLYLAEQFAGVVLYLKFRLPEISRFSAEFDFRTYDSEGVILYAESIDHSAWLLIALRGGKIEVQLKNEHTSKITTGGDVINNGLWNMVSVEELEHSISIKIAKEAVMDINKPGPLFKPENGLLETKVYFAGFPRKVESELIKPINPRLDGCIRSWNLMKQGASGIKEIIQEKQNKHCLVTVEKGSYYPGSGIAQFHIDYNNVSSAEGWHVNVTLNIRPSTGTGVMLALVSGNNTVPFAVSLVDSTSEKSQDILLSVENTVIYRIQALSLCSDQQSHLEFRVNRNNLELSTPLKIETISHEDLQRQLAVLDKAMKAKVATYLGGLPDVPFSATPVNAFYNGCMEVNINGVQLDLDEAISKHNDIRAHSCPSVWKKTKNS

human Protein S [2] = target: T1, human Protein S; assay: competition ELISA; Protein S coated; competitor biotinylated tracer JBS0684
Procedure: The competition (IC50) ELISA was performed using biotinylated tracer peptide JBS0684 to compete for Protein S-binding with candidate peptides. Peptides that compete with the tracer bind the same region of Protein S as the tracer (and each other). Ninety-six well PolySorp plates (Nunc) were coated with 3 μg/mL Protein S in coating buffer (15 mM Na₂CO₃, 35 mM NaHCO₃, pH 9.6) over night. […] Plates were then washed three times with HNaT. JBS0684 was applied at a concentration corresponding to the EC90 value determined in the binding ELISA. A competitor stock solution of peptide (10 mM) was diluted 1/33.3 in HNaT without HSA, and a serial 1/3 dilution was prepared with HNaT with 3% DMSO. The dilution was further diluted with the biotinylated tracer peptide in a ratio of 1:6 (20 μl competitor dilution and 100 μl tracer peptide). The mixture of competitor and tracer peptide was applied to the Protein S-coated microtiter plate and incubated for 1.5 hours. The plates were washed three times with HNaT. Peptide-Protein S binding was detected by applying HRP-conjugated streptavidin to the microtiter plate, incubating the mixture for one hour, washing the plate three times with HNaT, applying TMB (3,3′5,5′-Tetramethylbenzidin), and detecting the subsequent chromogenic conversion of TMB by HRP. IC50 measurements of peptides are provided herein (see, e.g., Table 3).

human Protein S [3] = target: T1, human Protein S; assay: cell-based or functional assay; remark: listed apart in the source
human Protein S [4] = target: T1, human Protein S; assay: LANCE TR-FRET competition; Eu-labeled Protein S; competitor tracer JBS0684
Procedure: Peptides also were characterized in a competition, homogenous europium-based TR-FRET assay (LANCE IC50 assay) using JBS0684 as a tracer (i.e., competitor for Protein S binding). The following reagents were mixed together in a Perkin-Elmer ProxiPlate MTP well (indicated concentration is the final concentration): Eu-labeled Protein S (10 nM), Ulight™-labeled Streptavidin (100 nM), tracer (JBS0684 (300 nM)), and peptide (titrated in three-fold dilution steps). The final volume was 50 μl/well. The reaction mix was incubated for 1 hour at room temperature, then the fluorescence emission at 665 nm was recorded on a multi-mode reader (SpectraMax® M5, Molecular Devices) using the following instrument settings: Ex 340 nm, Em 665 nm, delay 50 μsec, integration 100 μsec, reads 100. Binding of tracer peptides to soluble europium-labeled Protein S was detected by Streptavidin labeled with an acceptor fluorophor (ULight™). Inhibition of tracer-binding to Protein S by a non-biotinylated peptide results in a decrease of TR-FRET between the Eu-labeled Protein S and ULight™-labeled Streptavidin. IC50 values were obtained from peptide titration curves at constant tracer concentration using non-linear regression of the fluorescence emission signals at 665 nm.
Several peptides having multiple substitutions in the JBS2572 amino acid sequence were synthesized and evaluated using LANCE IC50 and CAT assays described above. For the assays, pooled normal plasma was supplemented with 3 nM APC and triggered with 6 pM TF, and 15 μM phospholipids (DOPC/POPS 80/20). Stock APC was diluted with TF-PL-MIX to 24 nM (plasma concentration: 3 nM).

B1: JBS2572 (peptide)
peptide: Ac-TGLVSAGWYDYNFDHYREFT-NH2
notes: also called parent peptide JBS2572
Human Protein S [1]
  CAT EC50: 14 nM
Human Protein S [2]
  IC50: 2.5 nM
Human Protein S [3]
  fold increase of activity in the CAT-assay compared to JBS2512: 1.6 fold
Human Protein S [4]
  IC50: 9.7 nM
